± gives the standard deviation of the averaged measurements.
What follows are sequences tested on ATP (assay: switch fluorescence ratio, 500 uM ATP over buffer (Cy3 cluster intensity, sum of 5 cycles each) (fold (ratio)); higher = stronger signal-on switching upon ATP binding; sequences stand for … in TCGTCGGCAGCGTCAGATGTGTATAAGAGACAGTTTTTTTTTTTTTTTTTTTTTTTTT…TC). Conditions: aptamer strand: ATP DNA aptamer (quencher-CACCTGGGGGAGTATTGCGGAGGAAGG + anchor), 100 nM annealed; ATP concentration: 500 uM.
How it was run: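 Exposure to 500 uM ATP lasted 15 min at 22 °C before imaging, and a selection-buffer image was taken beforehand, for Cy3-labelled switching-strand clusters on a modified Illumina MiSeq flow-cell annealed to 100 nM quencher-labelled ATP aptamer. Five buffer/ATP cycles were run with NaOH stripping and re-annealing between them. The fluorescence ratio per cluster is summed target-cycle over summed buffer-cycle Cy3 intensity, averaged per switch-domain sequence. Clusters outside 100-1000 RFU were excluded.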
Work on CTTTGTGATA yielded a switch fluorescence ratio of 1.04 ± 0.025. CTTTTAGTTG was tested, and the switch fluorescence ratio was 0.993 ± 0.017. Work on CTTTTATTTA yielded a switch fluorescence ratio of 0.99186 ± 0.00094. CTTTTGGAGT gave a switch fluorescence ratio of 0.986 ± 0.05. CTTTTGTCAC gave a switch fluorescence ratio of 1.05 ± 0.042. Sequence CTTTTGTCGT has a switch fluorescence ratio of 1.01 ± 0.028. CTTTTTATGA was tested, and the switch fluorescence ratio was 1.01 ± 0.027. For CTTTTTATTT, the switch fluorescence ratio was 1.14 ± 0.22. CTTTTTGTGG gave a switch fluorescence ratio of 0.9838 ± 0.0075. For CTTTTTTAGA, the switch fluorescence ratio was 0.9746 ± 0.0097. With GAAAAAAAAA the switch fluorescence ratio was 0.992 ± 0.023. GAAAAAAAAG gave a switch fluorescence ratio of 1.07 ± 0.1. Work on GAAAAAAGAT yielded a switch fluorescence ratio of 1.02 ± 0.014. Sequence GAAAAAAGGC has a switch fluorescence ratio of 1.03 ± 0.032. With GAAAAAGCCC the switch fluorescence ratio was 1.04 ± 0.031. With GAAAAAGGAC the switch fluorescence ratio was 1.27 ± 0.32. Sequence GAAAAAGGGA has a switch fluorescence ratio of 0.979 ± 0.026. GAAAAAGGTC gave a switch fluorescence ratio of 1.031 ± 0.008. GAAAAATTTT gave a switch fluorescence ratio of 1.02 ± 0.026. With GAAAAGAGTC the switch fluorescence ratio was 1.07 ± 0.034. With GAAAAGCCCC the switch fluorescence ratio was 1.09 ± 0.059. GAAAAGTAAG showed a switch fluorescence ratio of 1.018 ± 0.008. GAAAATTATA showed a switch fluorescence ratio of 1.02 ± 0.035. GAAAATTATG was tested, and the switch fluorescence ratio was 1.009 ± 0.0086. Sequence GAAACAGGAT has a switch fluorescence ratio of 1.02 ± 0.058. Work on GAAACCGGAG yielded a switch fluorescence ratio of 1.567 ± 0.015. In the case of GAAACCTATT, the switch fluorescence ratio is reported as 1.0142 ± 7.7e-05. GAAACGAAGG showed a switch fluorescence ratio of 0.9704 ± 0.0028. In the case of GAAACGGTGT, the switch fluorescence ratio is reported as 1.02 ± 0.031. Work on GAAACTTGGT yielded a switch fluorescence ratio of 1.004 ± 0.0065. GAAAGAAGGG was tested, and the switch fluorescence ratio was 1.21 ± 0.35. GAAAGAGGGA gave a switch fluorescence ratio of 1.02 ± 0.079. Sequence GAAAGAGTTC has a switch fluorescence ratio of 0.99729 ± 0.00094. For GAAAGATGAC, the switch fluorescence ratio was 1.03 ± 0.088. Work on GAAAGCGGGG yielded a switch fluorescence ratio of 0.968 ± 0.024. GAAAGGGGCT gave a switch fluorescence ratio of 0.993 ± 0.031. For GAAAGGGGGA, the switch fluorescence ratio was 1.02 ± 0.025. With GAAAGGGGTC the switch fluorescence ratio was 1.01 ± 0.074. Sequence GAAAGGGGTT has a switch fluorescence ratio of 1.02 ± 0.035. Sequence GAAAGGGTCC has a switch fluorescence ratio of 1.001 ± 0.01. GAAAGGTAAG gave a switch fluorescence ratio of 0.9934 ± 0.0036. Work on GAAAGTAGAG yielded a switch fluorescence ratio of 1.01 ± 0.0018. GAAAGTGCAT showed a switch fluorescence ratio of 0.999 ± 0.042. In the case of GAAAGTTAGG, the switch fluorescence ratio is reported as 1.1 ± 0.14. Work on GAAATAACTC yielded a switch fluorescence ratio of 1.36 ± 0.43. In the case of GAAATAGGTT, the switch fluorescence ratio is reported as 0.989 ± 0.012. Sequence GAAATATAAT has a switch fluorescence ratio of 1.012 ± 0.0066. For GAAATCGGGG, the switch fluorescence ratio was 1.05 ± 0.15. For GAAATCGTTC, the switch fluorescence ratio was 1.02 ± 0.019. GAAATGAAGG gave a switch fluorescence ratio of 0.973 ± 0.016. With GAAATGATTT the switch fluorescence ratio was 1.0406 ± 6.4e-05. Sequence GAAATGCGGC has a switch fluorescence ratio of 0.97935 ± 0.00044. GAAATGGCAA showed a switch fluorescence ratio of 1.03 ± 0.051. In the case of GAAATGGCGT, the switch fluorescence ratio is reported as 0.986 ± 0.038. GAAATGTGAG gave a switch fluorescence ratio of 0.9797 ± 0.0045. GAAATTCCGC gave a switch fluorescence ratio of 1.27 ± 0.088. GAAATTGAGT showed a switch fluorescence ratio of 1 ± 0.027. GAAATTGGCA gave a switch fluorescence ratio of 1.025 ± 0.004. GAAATTTTGT gave a switch fluorescence ratio of 0.994 ± 0.012. For GAACAACATG, the switch fluorescence ratio was 1.03 ± 0.051. GAACACAAAA was tested, and the switch fluorescence ratio was 1.05 ± 0.032. Work on GAACAGGGGA yielded a switch fluorescence ratio of 1.53 ± 0.68. With GAACATTTCG the switch fluorescence ratio was 1 ± 0.021. For GAACCGTGTT, the switch fluorescence ratio was 0.967 ± 0.036. Work on GAACCTGTGT yielded a switch fluorescence ratio of 0.993 ± 0.052. For GAACGCGTCC, the switch fluorescence ratio was 1.1 ± 0.015. Work on GAACGGCGGA yielded a switch fluorescence ratio of 0.9811 ± 0.002. For GAACGGCTCT, the switch fluorescence ratio was 1.012 ± 0.0011. In the case of GAACGTTTGC, the switch fluorescence ratio is reported as 1.11 ± 0.017. GAACTAAATG showed a switch fluorescence ratio of 1 ± 0.055. With GAACTAGGCA the switch fluorescence ratio was 1 ± 0.012. GAACTGAGTC was tested, and the switch fluorescence ratio was 1.01 ± 0.046. GAACTTGCCA gave a switch fluorescence ratio of 1.06 ± 0.073. In the case of GAACTTGCCT, the switch fluorescence ratio is reported as 1 ± 0.018. GAACTTGGG gave a switch fluorescence ratio of 1.01 ± 0.045. GAACTTGTCT gave a switch fluorescence ratio of 1.02 ± 0.036. Sequence GAACTTTCTG has a switch fluorescence ratio of 1.006 ± 0.0063. Sequence GAAGAACTGG has a switch fluorescence ratio of 0.991 ± 0.054. In the case of GAAGAGAGGC, the switch fluorescence ratio is reported as 0.96 ± 0.024. Sequence GAAGATGGTG has a switch fluorescence ratio of 0.963 ± 0.037. GAAGCACCGG showed a switch fluorescence ratio of 1.08 ± 0.026. For GAAGCAGATG, the switch fluorescence ratio was 1.16 ± 0.033. GAAGCCATAT showed a switch fluorescence ratio of 1.48 ± 0.068. GAAGCCGTTT was tested, and the switch fluorescence ratio was 1.01 ± 0.039. GAAGCGGGTG was tested, and the switch fluorescence ratio was 1.1 ± 0.1. For GAAGCGTGTC, the switch fluorescence ratio was 1.02 ± 0.017. For GAAGCTGTAT, the switch fluorescence ratio was 1.1 ± 0.035. GAAGGAACGT was tested, and the switch fluorescence ratio was 0.981 ± 0.043. Sequence GAAGGACAGC has a switch fluorescence ratio of 1.05 ± 0.034. In the case of GAAGGAGCAA, the switch fluorescence ratio is reported as 2.54 ± 1.2. GAAGGAGGGA was tested, and the switch fluorescence ratio was 0.987 ± 0.018. With GAAGGAGGGT the switch fluorescence ratio was 0.9731 ± 0.0064. In the case of GAAGGCAGCG, the switch fluorescence ratio is reported as 1.03 ± 0.017. In the case of GAAGGCGGTT, the switch fluorescence ratio is reported as 1.029 ± 0.0037. For GAAGGGAGGA, the switch fluorescence ratio was 1.03 ± 0.077. Work on GAAGGGATTA yielded a switch fluorescence ratio of 1.01 ± 0.04. With GAAGGGCCTG the switch fluorescence ratio was 1.05 ± 0.056. GAAGGGGATA was tested, and the switch fluorescence ratio was 1.01 ± 0.036. GAAGGGGCAG gave a switch fluorescence ratio of 0.97 ± 0.014. Work on GAAGGGGCTG yielded a switch fluorescence ratio of 1.01 ± 0.14. In the case of GAAGGGGTAC, the switch fluorescence ratio is reported as 1.16 ± 0.15. With GAAGGGGTCC the switch fluorescence ratio was 1 ± 0.042. With GAAGGGTGGG the switch fluorescence ratio was 1 ± 0.022. GAAGGTCGGC showed a switch fluorescence ratio of 0.994 ± 0.036. Sequence GAAGGTTAAC has a switch fluorescence ratio of 1.03 ± 0.1. GAAGGTTATT showed a switch fluorescence ratio of 0.9939 ± 0.0047. For GAAGTAAGTC, the switch fluorescence ratio was 1.104 ± 0.0051. GAAGTAGGTC showed a switch fluorescence ratio of 1.02 ± 0.041. Sequence GAAGTATCGG has a switch fluorescence ratio of 0.979 ± 0.024. Sequence GAAGTCTGTG has a switch fluorescence ratio of 1 ± 0.047. Sequence GAAGTGAGGG has a switch fluorescence ratio of 0.995 ± 0.017. For GAAGTGATAT, the switch fluorescence ratio was 1.206 ± 0.0013. For GAAGTGCTTT, the switch fluorescence ratio was 0.995 ± 0.041. Sequence GAAGTGTGGG has a switch fluorescence ratio of 0.962 ± 0.03. Sequence GAAGTGTGTG has a switch fluorescence ratio of 1 ± 0.021. In the case of GAAGTTACGG, the switch fluorescence ratio is reported as 1.11 ± 0.015. GAAGTTCCCA showed a switch fluorescence ratio of 0.979 ± 0.011. For GAAGTTCGTG, the switch fluorescence ratio was 1.01 ± 0.055. Sequence GAAGTTGGTG has a switch fluorescence ratio of 0.987 ± 0.026. GAAGTTTCTA showed a switch fluorescence ratio of 0.999 ± 0.0069. Work on GAAGTTTTTT yielded a switch fluorescence ratio of 1.002 ± 0.0036. GAATAAGCAA gave a switch fluorescence ratio of 1.56 ± 0.025. GAATAATGGG was tested, and the switch fluorescence ratio was 1.01 ± 0.033. Work on GAATAATTGG yielded a switch fluorescence ratio of 0.996 ± 0.015. Work on GAATAGTTTT yielded a switch fluorescence ratio of 1.01 ± 0.02. In the case of GAATATGAGA, the switch fluorescence ratio is reported as 0.9629 ± 0.0051. GAATATTACC gave a switch fluorescence ratio of 1.06 ± 0.014. For GAATCAAGCG, the switch fluorescence ratio was 0.986 ± 0.059. In the case of GAATCAGCGG, the switch fluorescence ratio is reported as 0.989 ± 0.018. GAATCAGGGG showed a switch fluorescence ratio of 1.11 ± 0.012. GAATCAGTGG gave a switch fluorescence ratio of 0.993 ± 0.05. GAATCCGGGA was tested, and the switch fluorescence ratio was 1.05 ± 0.087. With GAATCGTTTC the switch fluorescence ratio was 0.996 ± 0.053. GAATGGCACG showed a switch fluorescence ratio of 1.003 ± 0.008. Sequence GAATGGCGG has a switch fluorescence ratio of 0.998 ± 0.041. GAATGGGACA gave a switch fluorescence ratio of 1.13 ± 0.26. For GAATGGGGA, the switch fluorescence ratio was 0.986 ± 0.021. With GAATGGGTCC the switch fluorescence ratio was 1.01 ± 0.029. In the case of GAATGGTTGT, the switch fluorescence ratio is reported as 1.02 ± 0.023. With GAATGTAGGT the switch fluorescence ratio was 0.993 ± 0.037. With GAATGTGACG the switch fluorescence ratio was 1.02 ± 0.013. Sequence GAATGTGATA has a switch fluorescence ratio of 0.984 ± 0.018. In the case of GAATGTTATT, the switch fluorescence ratio is reported as 1.001 ± 0.0065. Sequence GAATGTTTGA has a switch fluorescence ratio of 0.984 ± 0.044. With GAATGTTTGG the switch fluorescence ratio was 0.991 ± 0.011. Work on GAATTAAAGT yielded a switch fluorescence ratio of 0.9823 ± 0.0041. GAATTAGGTA gave a switch fluorescence ratio of 0.962 ± 0.01. With GAATTATCAT the switch fluorescence ratio was 0.968 ± 0.015. GAATTGAAAA was tested, and the switch fluorescence ratio was 1.02 ± 0.026. GAATTGCGGG gave a switch fluorescence ratio of 1.02 ± 0.087. Sequence GAATTTAAAA has a switch fluorescence ratio of 0.9747 ± 0.0071. GAATTTAGCG gave a switch fluorescence ratio of 1.01 ± 0.015. With GAATTTGCGC the switch fluorescence ratio was 1.03 ± 0.084.

Reference: the supplement of paper PMC10126150
